# Entries after “also recorded” stand apart in the source; their conditions may differ.
# B1: ΔPlySs1: truncated PlySs1 lysin, SEQ ID NO:2, N-terminal 254 amino acids: only N-terminal enzymatic and central binding domains (protein, listed as Streptococcus suis)
# chain: MTINLETSIRWMSDRVGKVSYSMDYRNGPNSYDCSSAVYYALMAGGAISAGWAVNTEYMHDWLIRNGYVLVAENKPFNAQRHDVCILGKRGYSSGAGGHVVIFVDNVNVIHCNYARNGISIDNYNQVHRGMYYYLYRPANQPSISNKSLDQLVKETLAGVHGNGDTRKASLGSQYEAVMAVINGKASASEKSDEELAREVLAGKHGAGEDRKRSLGPRYEPVQAKVNELLKAKEKPSETAKNEPQTVQFKEDGDL
# B2: PlySs2: Streptococcus suis prophage lysin, SEQ ID NO:3; N-terminal CHAP domain and C-terminal SH3-type 5 domain (protein, listed as Streptococcus suis)
# chain: MTTVNEALNNVRAQVGSGVSVGNGECYALASWYERMISPDATVGLGAGVGWVSGAIGDTISAKNIGSSYNWQANGWTVSTSGPFKAGQIVTLGATPGNPYGHVVIVEAVDGDRLTILEQNYGGKRYPVRNYYSAASYRQQVVHYITPPGTVAQSAPNLAGSRSYRETGTMTVTVDALNVRRAPNTSGEIVAVYKRGESFDYDTVIIDVNGYVWVSYIGGSGKRNYVATGATKDGKRFGNAWGTFK
# Key:
# B. cereus 14579 = experiment: ΔPlySs1 OD600 lysis, 1 hr, optimal buffering conditions; assay type: cell-based, Bacillus cereus
# S. agalactiae type II = experiment: as above; assay type: cell-based, Streptococcus agalactiae
# S. sanguinis 10556 = experiment: as above; assay type: cell-based, Streptococcus sanguinis
# S. epidermidis HN1292 = experiment: as above; assay type: cell-based, Staphylococcus epidermidis
# S. equi 9528 = experiment: as above; assay type: cell-based, Streptococcus equi
# S. suis strain 7711 = experiment: ΔPlySs1 growth inhibition in BHI broth; assay type: cell-based, Streptococcus suis; conditions: overnight, 96-well plate
# Experimental: The optical density of each sample was measured continuously overnight in 96-well plate format. Overall, bacterial growth was delayed in a dose-dependent manner. However, for enzyme-concentrations that were sufficient to induce lysis in buffered solutions (130 and 50 μg/ml), the effect was quite minimal here. […] For all of the treated samples, one will note that the final optical densities are actually higher than that of the untreated sample. This is an artifact of the accumulation of aggregated bacterial debris that occurred in the presence of lytic enzyme.
# Truncated PlySs1(ΔPlySs1) lysin activity was determined against different cell types. Given the above experiments, the following optimal buffering conditions were employed for all further in vitro experiments with ΔPlySs1: 20 mM phosphate buffer, pH=7.8, 2 mM EDTA. A range of lysin concentrations, from 6.5-130 μg/ml, were introduced to live S. suis cells in this buffer. Three strains were considered particularly relevant: 7711, the serotype 7 strain that encodes PlySs1; S735, the serotype 2 reference strain; and 7997, a highly virulent serotype 9 strain. In terms of bacterial viability, only the highest PlySs1-concentration (130 μg/ml) led to a >90% decrease in CFUs for 7711, S735, and 7997 after 1 hr treatment (TABLE 2). The lysin was also tested against actively-dividing cells in broth culture (strain 7711) (FIG. 20).
# E. faecium EFSK2 = experiment: ΔPlySs1 OD600 lysis, 1 hr, optimal buffering conditions; assay type: cell-based, Enterococcus faecium
# S. dysgalactiae GGS = experiment: as above; assay type: cell-based, Streptococcus dysgalactiae
# B. thuringiensis HD73 = experiment: as above; assay type: cell-based, Bacillus thuringiensis
# S. aureus RN4220 = experiment: as above; assay type: cell-based, Staphylococcus aureus
# B. subtilis SL4 = experiment: as above; assay type: cell-based, Bacillus subtilis
# E. coli = experiment: CFU studies, bactericidal effect; assay type: cell-based, Escherichia coli; conditions: E. coli negative control; 128 μg/ml PlySs2; 60 mins
# Experimental: (§1) Log-phase bacteria were resuspended in buffer A to an OD600 of 0.1 (=0.5 McFarland≈10^8 CFU/ml). PlySs2 was added at 128 μg/ml to polypropylene microtiter plates (Costar) in triplicate for each test organism. Plates were sealed and incubated at 37° C. with shaking every 5 minutes for 1 hour. After 1 hour of incubation, cells were serially diluted in 10-fold increments and plated on BHI. Triplicate controls for each strain were performed with buffer B replacing PlySs2.
# MRSA = experiment: MIC studies; assay type: cell-based, Staphylococcus aureus
# Experimental: The Wiegand, et al. protocol to determine minimum inhibitory concentrations was followed with adjustments detailed below. A final suspension of ≈5×10^5 cells/ml in MHB (or BHI for S. pyogenes) resulted after Sterile-filtered lysin or vehicle was added at the appropriate concentration. These tests were distributed within a 96-well microtiter plate. The MIC's were determined, in this experiment, by detection of pellet formation in the bottom of rounded polysterene plate wells. They were also corroborated colorimetrically with alamarBlue®.
# MSSA strain 8325 = experiment: resistance assay, exposure to incrementally increasing concentrations; assay type: cell-based, Staphylococcus aureus; conditions: MSSA 8325; concentration doubled daily from 1/32 to 4× MIC over 8 days
# S. suis strain 7997 = experiment: PlySs2 OD600 lytic activity test, various concentrations; assay type: cell-based, Streptococcus suis
# L. monocytogenes = experiment: CFU studies, bactericidal effect; assay type: cell-based, Listeria monocytogenes; conditions: 128 μg/ml PlySs2, 60 mins
# Experimental: as §1
molecule,measurement,setting,value
B1,lysis value after 1 hr (treated/untreated OD600 ratio),B. cereus 14579; 6.5 μg/ml,0.93
same,lysis value after 1 hr (treated/untreated OD600 ratio),B. cereus 14579; 13 μg/ml,0.92
same,lysis value after 1 hr (treated/untreated OD600 ratio),B. cereus 14579; 30 μg/ml,0.86
same,lysis value after 1 hr (treated/untreated OD600 ratio),B. cereus 14579; 65 μg/ml,0.90
same,lysis value after 1 hr (treated/untreated OD600 ratio),B. cereus 14579; 130 μg/ml,0.86
same,lysis value after 1 hr (treated/untreated OD600 ratio),S. agalactiae type II; 6.5 μg/ml,0.61
same,lysis value after 1 hr (treated/untreated OD600 ratio),S. agalactiae type II; 13 μg/ml,0.21
same,lysis value after 1 hr (treated/untreated OD600 ratio),S. agalactiae type II; 30 μg/ml,0.11
same,lysis value after 1 hr (treated/untreated OD600 ratio),S. agalactiae type II; 65 μg/ml,0.08
same,lysis value after 1 hr (treated/untreated OD600 ratio),S. agalactiae type II; 130 μg/ml,0.04
same,lysis value after 1 hr (treated/untreated OD600 ratio),S. sanguinis 10556; 6.5 μg/ml,0.48
same,lysis value after 1 hr (treated/untreated OD600 ratio),S. sanguinis 10556; 13 μg/ml,0.44
same,lysis value after 1 hr (treated/untreated OD600 ratio),S. sanguinis 10556; 30 μg/ml,0.28
same,lysis value after 1 hr (treated/untreated OD600 ratio),S. sanguinis 10556; 65 μg/ml,0.21
same,lysis value after 1 hr (treated/untreated OD600 ratio),S. sanguinis 10556; 130 μg/ml,0.11
same,lysis value after 1 hr (treated/untreated OD600 ratio),S. epidermidis HN1292; 6.5 μg/ml,1.04
same,lysis value after 1 hr (treated/untreated OD600 ratio),S. epidermidis HN1292; 13 μg/ml,1.00
same,lysis value after 1 hr (treated/untreated OD600 ratio),S. epidermidis HN1292; 30 μg/ml,0.96
same,lysis value after 1 hr (treated/untreated OD600 ratio),S. epidermidis HN1292; 65 μg/ml,0.94
same,lysis value after 1 hr (treated/untreated OD600 ratio),S. epidermidis HN1292; 130 μg/ml,0.87
same,lysis value after 1 hr (treated/untreated OD600 ratio),S. equi 9528; 6.5 μg/ml,0.66
same,lysis value after 1 hr (treated/untreated OD600 ratio),S. equi 9528; 13 μg/ml,0.45
same,lysis value after 1 hr (treated/untreated OD600 ratio),S. equi 9528; 30 μg/ml,0.25
same,lysis value after 1 hr (treated/untreated OD600 ratio),S. equi 9528; 65 μg/ml,0.19
same,lysis value after 1 hr (treated/untreated OD600 ratio),S. equi 9528; 130 μg/ml,0.16
same,MIC / growth inhibition,S. suis strain 7711,could not inhibit S. suis growth outright; also recorded: a MIC could not be assigned
same,lysis value after 1 hr (treated/untreated OD600 ratio),E. faecium EFSK2; 6.5 μg/ml,0.85
same,lysis value after 1 hr (treated/untreated OD600 ratio),E. faecium EFSK2; 13 μg/ml,0.67
same,lysis value after 1 hr (treated/untreated OD600 ratio),E. faecium EFSK2; 30 μg/ml,0.52
same,lysis value after 1 hr (treated/untreated OD600 ratio),E. faecium EFSK2; 65 μg/ml,0.32
same,lysis value after 1 hr (treated/untreated OD600 ratio),E. faecium EFSK2; 130 μg/ml,0.13
same,lysis value after 1 hr (treated/untreated OD600 ratio),S. dysgalactiae GGS; 6.5 μg/ml,0.30
same,lysis value after 1 hr (treated/untreated OD600 ratio),S. dysgalactiae GGS; 13 μg/ml,0.27
same,lysis value after 1 hr (treated/untreated OD600 ratio),S. dysgalactiae GGS; 30 μg/ml,0.15
same,lysis value after 1 hr (treated/untreated OD600 ratio),S. dysgalactiae GGS; 65 μg/ml,0.11
same,lysis value after 1 hr (treated/untreated OD600 ratio),S. dysgalactiae GGS; 130 μg/ml,0.14
same,lysis value after 1 hr (treated/untreated OD600 ratio),B. thuringiensis HD73; 6.5 μg/ml,0.99
same,lysis value after 1 hr (treated/untreated OD600 ratio),B. thuringiensis HD73; 13 μg/ml,0.98
same,lysis value after 1 hr (treated/untreated OD600 ratio),B. thuringiensis HD73; 30 μg/ml,0.93
same,lysis value after 1 hr (treated/untreated OD600 ratio),B. thuringiensis HD73; 65 μg/ml,0.86
same,lysis value after 1 hr (treated/untreated OD600 ratio),B. thuringiensis HD73; 130 μg/ml,0.60
same,lysis value after 1 hr (treated/untreated OD600 ratio),S. aureus RN4220; 6.5 μg/ml,0.89
same,lysis value after 1 hr (treated/untreated OD600 ratio),S. aureus RN4220; 13 μg/ml,0.78
same,lysis value after 1 hr (treated/untreated OD600 ratio),S. aureus RN4220; 30 μg/ml,0.55
same,lysis value after 1 hr (treated/untreated OD600 ratio),S. aureus RN4220; 65 μg/ml,0.31
same,lysis value after 1 hr (treated/untreated OD600 ratio),S. aureus RN4220; 130 μg/ml,0.10
same,lysis value after 1 hr (treated/untreated OD600 ratio),B. subtilis SL4; 6.5 μg/ml,1.07
same,lysis value after 1 hr (treated/untreated OD600 ratio),B. subtilis SL4; 13 μg/ml,1.05
same,lysis value after 1 hr (treated/untreated OD600 ratio),B. subtilis SL4; 30 μg/ml,1.04
same,lysis value after 1 hr (treated/untreated OD600 ratio),B. subtilis SL4; 65 μg/ml,1.03
same,lysis value after 1 hr (treated/untreated OD600 ratio),B. subtilis SL4; 130 μg/ml,0.96
B2,reduction in CFU counts,E. coli,no reduction in number
same,minimum inhibitory concentration (MIC),MRSA,16 µg/mL
same,development of resistance,MSSA strain 8325,"Neither S. aureus strain developed resistance; also recorded: None of MRSA strain MW2, MSSA strain 8325, nor S. pyogenes strain 5005 developed resistance"
same,concentration giving acute lytic activity,S. suis strain 7997,≥ 8 µg/mL
same,reduction in CFU counts,L. monocytogenes,dramatically reduced
